Here are results for two molecules from patent US10919943B2, “Mutant proteins enabling agrochemical control of plant gene expression” (The Regents of the University of California, priority 2016, dated 2021).

For one assay, the system named is pMANDI-UAS-GFP-LEAFY. The experiment in a line: Mandipropamid induction of GFP-LEAFY in T1 leaf tissue, GFP fluorescence. It counts as in vivo, Arabidopsis. As to conditions: 10 μM mandipropamid, 24 hours; FIG. 15B. The text has this:
To test the efficacy of our transcriptional circuit in planta, we constructed a 3 component system for inducing genes of interest using the mandipropamid mediated interaction of a BD-PYR1*/AD-HAB1* to drive genes of interest from a GAL4-responsive UAS (FIG. 15A). To do this we constructed a BD-PYR1*^-MANDI fusion protein and NLSSV40-VP64-HAB1*-N7 fusion protein and used these to drive gene expression from a synthetic UAS-minimal-35S promoter. To make the desired vector, the three required components were separately cloned into vectors that provided necessary elements (such as the Gal4 DNA binding domain, or 35S-promoter-nos-terminator cassettes). After this, the three components were combined into a plant binary transformation vector.
To combine all three components into a single vector, a 35S::NLS-VP64-HAB1*-N7-Nos-terminator cassette was PCR amplified from pVP64-HAB1*-N7 and cloned into pBD-PYR1* into its SacI site, upstream of the BD-PYR1* expression cassette, yielding pAD-BD. […]
Having developed a simple induction system, we tested it by examining the expression of the flowering regulator LEAFY. […] 24 hours after transfer, both tissues were examined using a GFP fluorescence dissecting scope and documented under identical camera and microscope settings (FIG. 15B).

The subject of another assay is HAB1. The experiment in a line: In vitro PP2C assay, ligand-promoted inhibition of GST-HAB1 by receptor. It counts as biochemical, Arabidopsis. As to conditions: FIG. 9. The text has this: In the presence of ABA, wild type PYR1 binds to HAB1 and docks into its active site, which inhibits its enzymatic activity by blocking access of substrates. To characterize the orthogonal PYR1^! and HAB1^! interaction biochemically, we produced recombinant forms of each protein in E. coli, along with the wild type form, and tested the wild type and orthogonal mutant for their ability to inhibit HAB1 and HAB1^! activities in vitro. We cloned PYR1^! into pET28 to generate 6×-His tagged receptor and cloned HAB1^! into pGEX-4T-1 to create a GST-fusion protein. The previously constructed (S.-Y. Park et al., 2009) wild type 6×-His-PYR1 and GST-HAB1 constructs were used for producing recombinant wild type proteins. The 6×-His-tagged receptors and GST-tagged PP2Cs were expressed and purified as previously described. Briefly, the proteins were expressed in BL21 [DE3]pLysS E. coli host cells at 18° C. overnight. Fusion proteins were purified from sonicated lysates using Ni-NTA agarose (Qiagen, USA) or Pierce™ Glutathione Agarose (Thermo Scientific) according to the manufacturer's instructions. PP2C assays were conducted in 96-well polystyrene flat-bottom microtitre plates (Greiner). […] The plates were read using a Victor 2 plate reader (PerkinElmer) (355 nm excitation, 460 nm emission) and assays run in triplicate. The PP2C activity values reported are expressed as percent control values, which were calculated by including the carrier solvent (1% DMSO) and the specific receptor assayed, but no ligand. […]
According to our current understanding, in order for ABA signaling to be initiated in vivo, PP2C activity must be inhibited to enable accumulation of active SnRK2 kinases. […] 4-methylumbeliferyl phosphate was added (1 mM final concentration) was added to the reactions after 30 minutes equilibration and plates were read by fluorimetry. The PP2C activity values reported are expressed as percent control values, which was calculated by including the carrier solvent (1% DMSO) and the specific receptor assayed, but no ligand.

As to `C#CCOc1ccc(CCNC(=O)C(OCC#C)c2ccc(Cl)cc2)cc1OC` (stereo not drawn) [mandipropamid], the GFP-LEAFY induction entry in the assay on pMANDI-UAS-GFP-LEAFY was “GFP-LEAFY induction in response to mandipropamid”.

B1: PYR1*^-MANDI: PYR1 mutant with 9 mutations, most sensitive to mandipropamid (protein, listed as Arabidopsis thaliana)
chain: MPSELTPEERSELKNSIAEFHTYQLDPGSCSSLHAQRIHAPPELVWSIVRRFDKPQTHRHFIKSCSVEQNFEMRVGCTRDIIVISGLPANTSTERLDILDDERRVTGASIIGGEHRLTNYKGVTTVHRFEKENRIWTVVLESYVVDMPEGNSEDDTRIVVDDVVKLNLQKLATVAEAMARNSGDGSGSQVT
On to B1, for which, in the assay on HAB1 (in response to ABA), the “inhibition of HAB1 enzymatic activity” value is given as “does not inhibit”. The “inhibition of wild type HAB1 enzymatic activity” value in the assay on HAB1 (in response to mandipropamid, 100 nM receptor, 50 nM GST-HAB1) was “does not substantially inhibit”.
